We go through two molecules from article doi:10.1101/2025.04.09.647959.

Series [1] has as its target T1, human CD40 ligand (hCD40L) (Homo sapiens, UniProt P29965 113-261). Description: BLI. In general terms: Biolayer interferometry detects binding as a change in optical thickness at a sensor tip.
Series [2] has as its target T1, human CD40 ligand (hCD40L). Description: BLI. This is another data set of the same source.

Read-outs that look alike come from different tables or passages of the source.

T1 sequence (P29965 113-261): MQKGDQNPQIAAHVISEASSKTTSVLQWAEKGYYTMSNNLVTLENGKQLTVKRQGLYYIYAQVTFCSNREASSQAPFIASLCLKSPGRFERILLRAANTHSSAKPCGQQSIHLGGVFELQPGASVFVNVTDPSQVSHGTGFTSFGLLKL

B1: hCD40L-4 (LNA-T, 2'F-C) (XNA)
DNA: GGGAGGAGGAAGCGGACGATGAACAAGTTGAAAAGGAATTTAAACGAATTAACAACAGACGACACGCCCGA
modifications: all T are LNA-T; all C are 2'F-C; A and G ribo
Regarding B1, the binding result in series [1] is given as “binds”.

B2: hCD40L-1 (LNA-T, 2'F-C) (XNA)
DNA: GGGAGGAGGAAGCGGAAAAAGCAGGTGTGAAAAGGACGTCAAACGACGTGACACACAGACGACACGCCCGA
modifications: all T are LNA-T; all C are 2'F-C; A and G ribo
With B2, the binding result in series [2] is “binds”.
